Laboratory results as given in publication PMC4823740.
Several values for one entry are separate records, joined by “and”; a condition that tells them apart may be missing. Identical values can stand only once. Blank lines part the entries; values can stand above or below the substance they belong to.

Key:
[1] = target: Aggregation Suppressing Protein A (AgsA) wild type, tagless (Salmonella enterica serovar typhimurium LT2); test: SEC-MALS; unseparated wild type protein; Superose 6 10/300, 20 mM Tris, 200 mM NaCl, pH 8.0; about 100 uL of 2 mg/mL injected
[2] = target: Aggregation Suppressing Protein A (AgsA) wild type, tagless (Salmonella enterica serovar typhimurium LT2); test: SEC-MALS; separated 18-mer fraction of the wild type after size exclusion chromatography; Superdex 200 10/300, 20 mM Tris, 50 mM NaCl, pH 7.5
[3] = target: Aggregation Suppressing Protein A (AgsA) wild type, tagless (Salmonella enterica serovar typhimurium LT2); test: SEC-MALS; separated 24-mer fraction of the wild type after size exclusion chromatography; Superdex 200 10/300, 20 mM Tris, 50 mM NaCl, pH 7.5
[4] = target: AgsA:DD, double deletion AgsA lacking 11 residues at the N-terminus and 9 residues at the C-terminus, tagless (Salmonella enterica serovar typhimurium LT2); test: crystal structure; AgsA:DD; 30% polypropylene glycol 400, 0.1 M NaCl, 20 °C; space group R32, 3 dimers in the asymmetric unit, 7.5 Å
[5] = target: AgsA:DD, double deletion AgsA lacking 11 residues at the N-terminus and 9 residues at the C-terminus, tagless (Salmonella enterica serovar typhimurium LT2); test: SEC; analytical SEC, Superose 6 10/300, 20 mM Tris, 50 mM NaCl, pH 7.5, calibrated with molecular weight markers; oligomeric state in solution
[6] = target: AgsA:DelC, AgsA lacking 9 residues at the C-terminus, tagless (Salmonella enterica serovar typhimurium LT2); test: as above
[7] = target: AgsA:DelC, AgsA lacking 9 residues at the C-terminus, tagless (Salmonella enterica serovar typhimurium LT2); test: crystal structure; AgsA:DelC; 30% pentaerythritol propoxylate (5/4 PO/OH), 0.1 M MES pH 6.0, 30% glycerol, 20 °C; space group I23, a dimer in the asymmetric unit, 4.1 Å
[8] = target: AgsA:His-DD, hexa-histidine tagged double deletion construct of AgsA (Salmonella enterica serovar typhimurium LT2); test: SEC; analytical SEC, Superose 6 10/300, 20 mM Tris, 50 mM NaCl, pH 7.5, calibrated with molecular weight markers; oligomeric state in solution
[9] = target: core ACD fragment of AgsA:His-DD (degraded fragment in the crystal, residues 35-147) (Salmonella enterica serovar typhimurium LT2); test: crystal structure; AgsA:His-DD degraded in the drop; 25% pentaerythritol propoxylate (5/4 PO/OH), 0.1 M MES pH 6.0, 20% MPD, 20 °C; space group P4(1)2(1)2, 2.0 Å

stoichiometry N [1]: 18 and 24
stoichiometry N [2]: 18
stoichiometry N [3]: 18 and 24
Substance: Aggregation Suppressing Protein A (AgsA) wild type, tagless (natural protein)

Substance: AgsA:DD, double deletion AgsA lacking 11 residues at the N-terminus and 9 residues at the C-terminus, tagless (domain or fragment)
stoichiometry N [4]: 18
stoichiometry N [5]: 18

Substance: AgsA:DelC, AgsA lacking 9 residues at the C-terminus, tagless (domain or fragment)
stoichiometry N [6]: 24
stoichiometry N [7]: 24

Substance: AgsA:His-DD, hexa-histidine tagged double deletion construct of AgsA (domain or fragment)
stoichiometry N [8]: 24

Substance: core ACD fragment of AgsA:His-DD (degraded fragment in the crystal, residues 35-147) (domain or fragment)
stoichiometry N [9]: 2
